B1: 22043 (protein)
chain: MALPVTALLLPLALLLHAARPQLQLQESGPGLVKPSETLSLTCTVSGDSISSGDYYWGWIRQPPGKGLEWIGHIYYSGVTYYNPSLKSRVTISVDTSRNQFSLKLSSVTAADTAVYYCTREDSSNWRSRGQGTLVTVSSLEDKTHTCPPCPAPIKTDVITMDPKDNCSKDANDTLLLQLTNTSAYYMYLLLLLKSVVYFAIITCCLLRRTAFCCNGEKSRAKRSGSGATNFSLLKQAGDVEENPGPTSMDWIWRILFLVGAATGAHSFEVQLVESGGGVVQPGRSLRLSCAASGFSFSGYGMHWVRQAPGKGLEWVAYISYDGSNKYYADSVKGRFTISRDNSKNTLYLQMNSLRAEDTAVYYCAKDPAWGLRLGESSSYDFDIWGQGTMVTVSSTRDKTHTCPPCPAIPEDTFFPSPESSCDVKLVEKSFETDTNLNFQNLSVIGFRILLLKVAGFNLLMTLRLWSSRAKRSGSGVKQTLNFDLLKLAGDVESNPGPSRGHMTEYKPTVRLATRDDVPRAVRTLAAAFADYPATRHTVDPDRHIERVTELQELFLTRVGLDIGKVWVADDGAAVAVWTTPESVEAGAVFAEIGPRMAELSGSRLAAQQQMEGLLAPHRPKEPAWFLATVGVSPDHQGKGLGSAVVLPGVEAAERAGVPAFLETSAPRNLPFYERLGFTVTADVEVPEGPRTWCMTRKPGA
B2: SEQ ID NO: 22288: SAR with adaptor binding domain (Table 48) (protein)
chain: MALPVTALLLPLALLLHAARPACLFNQEVQIPLTESYCGPCPKNWICYKNNCYQFFDESKNWYESQASCMSQNASLLKVYSKEDQDLLKLVKSAHWMGLVHIPTNGSWQWEDGSILSPNLLTIIEMQKGDCALYASSFKGYIENCSTPNTYICMQRTVLEGQPKANPTVTLFPPSSEELQANKATLVCLISDFYPGAVTVAWKADGSPVKAGVETTKPSKQSNNKYAASSYLSLTPEQWKSHRSYSCQVTHEGSTVEKTVAPTECSPIKTDVITMDPKDNCSKDANDTLLLQLTNTSAYYMYLLLLLKSVVYFAIITCCLLRRTAFCCNGEKSRAKRSGSGATNFSLLKQAGDVEENPGPTSATMDWIWRILFLVGAATGAHSGPQVQLQESGGGLAQAGGSLRLSCAASGRTFSMGWFRQAPGKEREFVAAITYSGGSPYYASSVRGRFTISRDNAKNTVYLQMNSLKPEDTAVYYCAANPTYGSDWNAENWGQGTQVTVSSGSGGGGSGGGGSGGGGSFEDLFNQEVQIPLTESYCGPCPKNWICYKNNCYQFFDESKNWYESQASCMSQNASLLKVYSKEDQDLLKLVKSAHWMGLVHIPTNGSWQWEDGSILSPNLLTIIEMQKGDCALYASSFKGFIENCSTPNTYICMQRTVTRASTKGPSVFPLAPSSKSTSGGTAALGCLVKDYFPEPVTVSWNSGALTSGVHTFPAVLQSSGLYSLSSVVTVPSSSLGTQTYICNVNHKPSNTKVDKRVEPKSCEVKTDSTDHVKPKETENTKQPSKSCHKPKAIVHTEKVNMMSLTVLGLRMLFAKTVAVNFLLTAKLFFLRAKRSGSGVKQTLNFDLLKLAGDVESNPGPSRGHMTEYKPTVRLATRDDVPRAVRTLAAAFADYPATRHTVDPDRHIERVTELQELFLTRVGLDIGKVWVADDGAAVAVWTTPESVEAGAVFAEIGPRMAELSGSRLAAQQQMEGLLAPHRPKEPAWFLATVGVSPDHQGKGLGSAVVLPGVEAAERAGVPAFLETSAPRNLPFYERLGFTVTADVEVPEGPRTWCMTRKPGA

Assays:
[1] = tested on: RAJI cells; test: JNG assay, co-culture with RAJI cells; format: cell-based
Outline: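 Jurkat-NFAT-GFP (JNG) cells stably expressing SAR constructs via lentiviral transduction and puromycin/blasticidin selection were cocultured with target cells at E:T ~1:2 for ~4–18 h. NFAT-driven GFP was measured by FACS versus parental JNG cells; scores +/- to 5+ denote ~5–50% GFP-positive cells.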

[2] = tested on: LNCaP cells; test: JNG assay, co-culture with LNCaP cells; format: cell-based
Outline: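 Jurkat NFAT-GFP reporter cells stably expressing lentivirally delivered SARs (puromycin or blasticidin selection) were cocultured with target cells at E:T ~1:2 for ~4–18 h. GFP was read by FACS, and % GFP+ cells were scored against parental reporter cells (+/-, +, 2+…5+ ≈ 5%, 10%, 20%…50%).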

Molecule | NFAT-GFP ASSAY: Raji ([1]; JNG cells expressing construct, co-culture with Raji) | NFAT-GFP ASSAY: LNCaP ([2]; co-culture with LNCaP) | GFP induction / activity ([1]; co-culture with RAJI cells) | GFP induction ([2]; LNCaP cells, only in the presence of SAR-adaptor PSMA-USC76-chVH-G4S-ULBP2-S3 (SEQ ID NO: 23114))
B1 | +/- (refer to approximately 5%, 10%, 20%, 30%, 40% and 50% GFP positive cells) | + (refer to approximately 5%, 10%, 20%, 30%, 40% and 50% GFP positive cells) | – | –
B2 | – | – | Essentially similar results | Essentially similar results

Source: patent US20230212319A1, “NOVEL ANTIGEN BINDING DOMAINS AND SYNTHETIC ANTIGEN RECEPTORS INCORPORATING THE SAME” (University of Southern California, priority 2020, published 2023)
